One substance from paper doi:10.1101/2025.06.25.661518 can be followed below.

In general, Kd refers to the equilibrium constant for the complex coming apart. The low end stands for tighter binding, the high end for weaker binding.

The test system of data set [1] is BALF2 Δ52 (Epstein-Barr virus (EBV)). Description: fluorescence anisotropy. The settings on record: not in material (Methods absent); anisotropy titrations in triplicate. In general terms: In fluorescence polarisation assays a small probe gives low polarisation when free and higher when bound to something large.
In data set [2] the test system is BALF2 wild type (Epstein-Barr virus (EBV)). As to the kind of experiment: fluorescence anisotropy. The settings on record: not in material (Methods absent); anisotropy titrations in triplicate.

Take 16-mer ssDNA: the figures for the Kd in data set [1] and in data set [2] were 1040 nM and 232 nM, respectively.
